The results in this text go back to patent publication US20150246949A1, “Desmoglein 2 (DSG2) Binding Proteins and Uses Therefor” (UNIVERSITY OF WASHINGTON THROUGH ITS CENTER FOR …, priority 2012, published 2015).

Numbering of substitutions follows the chain as printed. In names and notes the source's numbering stands. Entries after “also recorded” stand apart in the source; their conditions may differ.

One assay deals with T1, soluble recombinant DSG2 (Homo sapiens, UniProt Q14126).
T1 construct: purchased Leinco Technologies, Inc. (St. Louis, Mo.)
T1 sequence (Q14126 50-609 limits assumed): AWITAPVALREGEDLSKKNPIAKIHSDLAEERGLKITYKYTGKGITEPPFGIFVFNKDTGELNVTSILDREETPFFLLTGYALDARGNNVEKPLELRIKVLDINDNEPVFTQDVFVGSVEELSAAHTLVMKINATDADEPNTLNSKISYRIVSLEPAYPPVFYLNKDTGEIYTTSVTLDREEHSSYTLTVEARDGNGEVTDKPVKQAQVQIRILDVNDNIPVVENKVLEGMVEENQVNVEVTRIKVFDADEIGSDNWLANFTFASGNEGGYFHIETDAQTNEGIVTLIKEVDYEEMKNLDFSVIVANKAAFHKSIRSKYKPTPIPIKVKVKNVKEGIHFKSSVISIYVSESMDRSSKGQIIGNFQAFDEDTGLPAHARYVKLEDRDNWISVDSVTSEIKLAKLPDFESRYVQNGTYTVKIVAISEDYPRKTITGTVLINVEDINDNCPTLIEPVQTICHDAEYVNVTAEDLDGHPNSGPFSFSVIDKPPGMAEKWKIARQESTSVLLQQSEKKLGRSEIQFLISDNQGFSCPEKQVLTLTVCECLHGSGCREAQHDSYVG
Description: Western blot of dimeric Ad3 fiber knob mutants probed with soluble DSG2. The format is binding. The note with it: purified dimerized knob mutants. An excerpt: FIG. 1. Residues found to be critically involved in binding to DSG2. A) Shown are the amino acid sequences of the Ad3 and Ad14p1 fiber knob. Beta sheets present in the Ad3 knob (PDB accession number 1H7Z_A) and Ad14 knob (PDB: 3F0Y_A) are indicated by lines. Black arrows indicate residues within the Ad3 fiber knob which, when mutated individually, ablate or reduce binding to DSG2. […] B) Schematic structure of dimeric Ad3 fiber knob mutants. The fiber knob domain and one shaft motif was fused through a flexible linker to a homodimerizing K-coil domain (41). The proteins are self-dimerizing and can be purified by His-Ni-NTA affinity chromatography. C-F) Analysis of binding of dimeric Ad3 fiber knob mutants to soluble DSG2. C and D) Coomassie staining. 10 μg of purified Ad3 fiber knob (unboiled) were loaded per lane. Trimeric forms of the fiber knobs are indicated by an arrow. The gel contained SDS and the loading buffer containing DTT, which caused the disassembly of dimers of trimeric fiber knobs as previously reported (41). E and F): Western blot using soluble recombinant DSG2 as a probe, followed by anti-DSG2-mAb and anti-mouse IgG-HRP. For comparison, JO-1 (0.5 μg/lane) is shown. The Western blots were scanned and signals were quantified.
Mini-PROTEAN precast gels (BIO-RAD, Hercules, Calif.) with 4-15% gradient polyacrylamide were used. A total of […] protein mixed with 2× loading buffer (10 mM Tris-HCl, pH6.8, 200 mM DTT, 4% SDS, 20% glycerol, 0.2% bromophenol blue) was loaded per lane. Samples were either boiled (B) for 5 min or loaded unboiled (UB). The following running buffer was used: 25 mM Tris, pH8.3, 0.192 M glycine, 0.1% SDS. After electrophoresis, proteins were transferred to nitrocellulose and incubated with recombinant human DSG2 protein and anti-DSG2 antibodies as described previously (42). The Western blots were scanned and quantified using the ImageJ 1.32 software (National Institutes of Health, Bethesda, Md.). JO-1 band intensity was set as 100%. […]

Assay [1] has as its system MDA-MB-231 orthotopic TNBC tumors. Description: Enhancement of nab-paclitaxel/cetuximab therapy in triple negative breast cancer model. It is filed as in vivo, CB17 SCID-beige mice. Particulars: 2 mg/kg i.v. 1 hour before cetuximab 10 mg/kg i.p. and nab-paclitaxel 5 mg/kg i.v., weekly; N=10. As to the method: FIG. 10. Combination of affinity-enhanced JO-1 versions with chemotherapy. A) Enhancement of irinotecan (I) therapy. The experimental setting was the same as in FIG. 5B. […] N=5. […] Mammary fat pad tumors were established from primary ovarian cancer ovc316 cells. Treatment was started when tumors reached a volume of 100 mm^3 Mice were injected intravenously with 2 mg/kg JO-1 or with 0.5 mg/kg JO-4, followed by an intravenous injection of PEGylated liposomal doxorubicin (PLD) (1 mg/kg) one hour later. Treatment was repeated weekly. […] A total of 4×10^6 TNBC MDA-MB-231 cells were injected into the mammary fat pad of CB17 SCID-beige mice. JO-4 (2 mg/kg) was intravenously injected 1 hour before the application of cetuximab (C) (10 mg/kg, i.p.) and nab-paclitaxel (nab-P) (5 mg/kg, i.v). Treatment was given weekly. N=10 P<0.01 at day 25 for nab-P+C vs JO-4+nab-P+C.
A549, MDA-MB-231, and ovc316 xenograft tumors were established by injection of the corresponding tumor cells into the mammary fat pad (1:1 with Matrigel) of CB17 mice. TC1-DSG2 tumors were established by subcutaneous injection of TC1-DSG2 cells into DSG2 transgenic mice. […] Tumor volumes were measured three times a week. […]

B1: D261N (protein)
chain: MKVSALKEKVSALKEKVSALKEKVSALKEKVSALKEGSGGGSGGGSGGGSNSIALKNNTLWTGPKPEANCIIEYGKQNPDSKLTLILVKNGGIVNGYVTLMGASDYVNTLFKNKNVSINVELYFDATGHILPDSSSLKTDLELKYKQTADFSARGFMPSTTAYPFVLPNAGTHNENYIFGQCYYKASNGALFPLEVTVMLNKRLPDSRTSYVMTFLWSLNAGLAPETTQATLITSPFTFSYIREDD
B1: the “DSG2 binding in Western blot compared to JO-1” value with soluble recombinant DSG2 is given as “almost completely ablated for DSG2 binding”.

B2: JO-4 (protein)
chain: B1 chain with Y177F, N188D
As to B2, in assay [1], the “Enhancement of nab-paclitaxel/cetuximab therapy” value is given as “significantly increased nab-paclitaxel/cetuximab therapy; also recorded: enhances therapy”.
